For the assay, the target named is Pyrococcus abyssi PAB1135 protein (trypsin-treated) (Pyrococcus abyssi) (UniProt Q9UXX8). Briefly: SEC; trypsin-treated PAB1135 on Superdex 75 XK 16/60; 50 mM Tris-HCl pH 8.0, 150 mM NaCl, 0.5 mM EDTA; apparent mass against mass markers.

On to “Pyrococcus abyssi PAB1135 protein (trypsin-treated) (from UniProt Q9UXX8 1-154) (natural protein)”, for which the stoichiometry N came out at 2.

What is called stoichiometry N is the number of molecules, sites or subunits per partner or assembly.

The values above are taken from PMC2872656.
